The values below come from patent US20180085432A1, “STING (Stimulator of Interferon Genes), A Regulator of Innate Immune Responses” (University of Miami, priority 2008, published 2018).

One assay relates to A366 peptide. Kind of assay: screening of kinases for S366 of STING (33P-ATP). The note with it: kinase mixed with peptide and 33P-ATP. It is filed as biochemical. On the procedure:
(§1) The activity of 217 protein kinase targets were evaluated against 2 peptides (A366 and S366) as substrate. Protein kinases were mixed with each peptide and ^33P-ATP and then activity (CPM) was measured. The below kinases were identified as phosphorylating S366 in STING. Identification of kinases which target this serine opens up novel avenues for drug discovery. Drugs that target this association may inhibit STING activity and be used for therapeutic purposes to inhibit STING activity. STING over activity may lead to inflammatory diseases which can exacerbate cancer.

The next assay has as its system S366 peptide. As to the kind of experiment: screening of kinases for S366 of STING (33P-ATP). The settings on record: for Fold inducton: S366 peptide vs A366 peptide; for Activity, S366 peptide: kinase mixed with peptide and 33P-ATP. The assay is classed as biochemical. The protocol:
as §1

As for CK1 (isoform illegible) (enzyme), the figures for the Activity (cpm), kinase mixed with peptide and 33P-ATP in the assay with A366 peptide of STING and with S366 peptide of STING were 15600 cpm and 26200 cpm, respectively.
For the molecule NEK6 (from UniProt Q9HC98) (enzyme), the Activity (cpm), kinase mixed with peptide and 33P-ATP with A366 peptide of STING came to 5510 cpm; in the assay with S366 peptide of STING, 35600 cpm.
On to PIM2 (from UniProt Q9P1W9) (enzyme), for which the Activity (cpm), kinase mixed with peptide and 33P-ATP stood at 1410 cpm with A366 peptide of STING and 3720 cpm in the assay with S366 peptide of STING.
NEK7 (from UniProt Q8TDX7) (enzyme): the results for the Activity (cpm), kinase mixed with peptide and 33P-ATP with A366 peptide of STING and with S366 peptide of STING were 3620 cpm and 19100 cpm, respectively.
Regarding PKC (isoform illegible) (enzyme), the Activity (cpm), kinase mixed with peptide and 33P-ATP in the assay with A366 peptide of STING came out at 6810 cpm; with S366 peptide of STING, 12800 cpm.
PIM2: protein kinase: the “Activity, A366 peptide” value with A366 peptide came to 1414 cpm. Besides, in the assay on S366 peptide, the Fold inducton was 2.63 and the “Activity, S366 peptide” value is 3715 cpm.
NEK7: protein kinase: the “Activity, A366 peptide” value in the assay with A366 peptide is recorded as 3619 cpm. Moreover, in the assay with S366 peptide, the Fold inducton was 5.28 and the “Activity, S366 peptide” value is 19112 cpm.
On to NEK6: protein kinase, for which the “Activity, A366 peptide” value in the assay with A366 peptide is on record as 5512 cpm. Moreover, in the assay with S366 peptide, the Fold inducton turned out to be 6.45 and the “Activity, S366 peptide” value turned out to be 35556 cpm.

B1: IRAK4 (enzyme)
chain: MNKPITPSTYVRCLNVGLIRKLSDFIDPQEGWKKLAVAIKKPSGDDRYNQFHIRRFEALLQTGKSPTSELLFDWGTTNCTVGDLVDLLIQNEFFAPASLLLPDAVPKTANTLPSKEAITVQQKQMPFCDKDRTLMTPVQNLEQSYMPPDSSSPENKSLEVSDTRFHSFSFYELKNVTNNFDERPISVGGNKMGEGGFGVVYKGYVNNTTVAVKKLAAMVDITTEELKQQFDQEIKVMAKCQHENLVELLGFSSDGDDLCLVYVYMPNGSLLDRLSCLDGTPPLSWHMRCKIAQGAANGINFLHENHHIHRDIKSANILLDEAFTAKISDFGLARASEKFAQTVMTSRIVGTTAYMAPEALRGEITPKSDIYSFGVVLLEIITGLPAVDEHREPQLLLDIKEEIEDEEKTIEDYIDKKMNDADSTSVEAMYSVASQCLHEKKNKRPDIKKVQQLLQEMTAS
For the molecule B1, the Activity (cpm), kinase mixed with peptide and 33P-ATP with A366 peptide of STING turned out to be 7440 cpm. Also, the Activity (cpm), kinase mixed with peptide and 33P-ATP with S366 peptide of STING is 50400 cpm. For the same molecule, in the assay with A366 peptide, the “Activity, A366 peptide” value is recorded as 7435 cpm. For the same molecule, in the assay with S366 peptide, the Fold inducton is listed as 6.77 and the “Activity, S366 peptide” value is listed as 50353 cpm.

B2: IKKα (enzyme)
chain: MERPPGLRPGAGGPWEMRERLGTGGFGNVCLYQHRELDLKIAIKSCRLELSTKNRERWCHEIQIMKKLNHANVVKACDVPEELNILIHDVPLLAMEYCSGGDLRKLLNKPENCCGLKESQILSLLSDIGSGIRYLHENKIIHRDLKPENIVLQDVGGKIIHKIIDLGYAKDVDQGSLCTSFVGTLQYLAPELFENKPYTATVDYWSFGTMVFECIAGYRPFLHHLQPFTWHEKIKKKDPKCIFACEEMSGEVRFSSHLPQPNSLCSLVVEPMENWLQLMLNWDPQQRGGPVDLTLKQPRCFVLMDHILNLKIVHILNMTSAKIISFLLPPDESLHSLQSRIERETGINTGSQELLSETGISLDPRKPASQCVLDGVRGCDSYMVYLFDKSKTVYEGPFASRSLSDCVNYIVQDSKIQLPIIQLRKVWAEAVHYVSGLKEDYSRLFQGQRAAMLSLLRYNANLTKMKNTLISASQQLKAKLEFFHKSIQLDLERYSEQMTYGISSEKMLKAWKEMEEKAIHYAEVGVIGYLEDQIMSLHAEIMELQKSPYGRRQGDLMESLEQRAIDLYKQLKHRPSDHSYSDSTEMVKIIVHTVQSQDRVLKELFGHLSKLLGCKQKIIDLLPKVEVALSNIKEADNTVMFMQGKRQKEIWHLLKIACTQSSARSLVGSSLEGAVTPQTSAWLPPTSAEHDHSLSCVVTPQDGETSAQMIEENLNCLGHLSTIIHEANEEQGNSMMNLDWSWLTE
In turn, B2 yielded an Activity (cpm), kinase mixed with peptide and 33P-ATP with A366 peptide of STING of 2430 cpm. The same molecule showed an Activity (cpm), kinase mixed with peptide and 33P-ATP in the assay with S366 peptide of STING of 6890 cpm. In addition, in the assay on A366 peptide, the “Activity, A366 peptide” value is reported as 2432 cpm. In addition, in the assay on S366 peptide, the Fold inducton stood at 2.83 and the “Activity, S366 peptide” value was found to be 6889 cpm.

B3: MEKK1 (enzyme)
chain: NQKCKEKMEAEEEEALAIAMAMSASQDALPIVPQLQVENGEDIIIIQQDTPETLPGHTKAKQPYREDTEWLKGQQIGLGAFSSCYQAQDVGTGTLMAVKQVTYVRNTSSEQEEVVEALREEIRMMSHLNHPNIIRMLGATCEKSNYNLFIEWMAGGSVAHLLSKYGAFKESVVINYTEQLLRGLSYLHENQIIHRDVKGANLLIDSTGQRLRIADFGAAARLASKGTGAGEFQGQLLGTIAFMAPEVLRGQQYGRSCDVWSVGCAIIEMACAKPPWNAEKHSNHLALIFKIASATTAPSIPSHLSPGLRDVALRCLELQPQDRPPSRELLKHPVFRTTW
Take B3: the Activity (cpm), kinase mixed with peptide and 33P-ATP with A366 peptide of STING is 11300 cpm. The same molecule yielded an Activity (cpm), kinase mixed with peptide and 33P-ATP in the assay with S366 peptide of STING of 24900 cpm. The “Activity, A366 peptide” value with A366 peptide is recorded as 11316 cpm. For the same molecule, in the assay on S366 peptide, the Fold inducton came out at 2.20 and the “Activity, S366 peptide” value stood at 24866 cpm.

B4: NEK2 (enzyme)
chain: MPSRAEDYEVLYTIGTGSYGRCQKIRRKSDGKILVWKELDYGSMTEAEKQMLVSEVNLLRELKHPNIVRYYDRIIDRTNTTLYIVMEYCEGGDLASVITKGTKERQYLDEEFVLRVMTQLTLALKECHRRSDGGHTVLHRDLKPANVFLDGKQNVKLGDFGLARILNHDTSFAKTFVGTPYYMSPEQMNRMSYNEKSDIWSLGCLLYELCALMPPFTAFSQKELAGKIREGKFRRIPYRYSDELNEIITRMLNLKDYHRPSVEEILENPLIADLVADEQRRNLERRGRQLGEPEKSQDSSPVLSELKLKEIQLQERERALKAREERLEQKEQELCVRERLAEDKLARAENLLKNYSLLKERKFLSLASNPELLNLPSSVIKKKVHFSGESKENIMRSENSESQLTSKSKCKDLKKRLHAAQLRAQALSDIEKNYQLKSRQILGMR
In turn, B4 displayed an Activity (cpm), kinase mixed with peptide and 33P-ATP with A366 peptide of STING of 8700 cpm. Also, the Activity (cpm), kinase mixed with peptide and 33P-ATP with S366 peptide of STING came out at 162000 cpm. For the same molecule, in the assay on A366 peptide, the “Activity, A366 peptide” value amounted to 8702 cpm. For the same molecule, in the assay on S366 peptide, the Fold inducton is on record as 18.65 and the “Activity, S366 peptide” value stood at 162331 cpm.

B5: GRK7 (enzyme)
chain: MVDMGALDNLIANTAYLQARKPSDCDSKELQRRRRSLALPGLQGCAELRQKLSLNFHSLCEQQPIGRRLFRDFLATVPTFRKAATFLEDVQNWELAEEGPTKDSALQGLVATCASAPAPGNPQPFLSQAVATKCQAATTEEERVAAVTLAKAEAMAFLQEQPFKDFVTSAFYDKFLQWKLFEMQPVSDKYFTEFRVLGKGGFGEVCAVQVKNTGKMYACKKLDKKRLKKKGGEKMALLEKEILEKVSSPFIVSLAYAFESKTHLCLVMSLMNGGDLKFHIYNVGTRGLDMSRVIFYSAQIACGMLHLHELGIVYRDMKPENVLLDDLGNCRLSDLGLAVEMKGGKPITQRAGTNGYMAPEILMEKVSYSYPVDWFAMGCSIYEMVAGRTPFKDYKEKVSKEDLKQRTLQDEVKFQHDNFTEEAKDICRLFLAKKPEQRLGSREKSDDPRKHHFFKTINFPRLEAGLIEPPFVPDPSVVYAKDIAEIDDFSEVRGVEFDDKDKQFFKNFATGAVPIAWQEEIIETGLFEELNDPNRPTGCEEGNSSKSGVCLLL
Regarding B5, the Activity (cpm), kinase mixed with peptide and 33P-ATP with A366 peptide of STING came to 7260 cpm. The molecule also had an Activity (cpm), kinase mixed with peptide and 33P-ATP in the assay with S366 peptide of STING of 13100 cpm. Besides, the “Activity, A366 peptide” value with A366 peptide turned out to be 7263 cpm. For the same molecule, in the assay with S366 peptide, the Fold inducton is recorded as 1.81 and the “Activity, S366 peptide” value is recorded as 13124 cpm.
